Results: patent publication US20150110776A1 (PROTHENA BIOSCIENCES, published 2015)

T1: rat IAPP (rat, UniProt P12969 38-74)
T1 construct: Used as the soluble analyte in the Biacore assay in place of human IAPP; also called rat islet amyloid polypeptide
T1 peptide (looked up): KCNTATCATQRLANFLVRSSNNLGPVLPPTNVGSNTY

T2: hIAPP peptide LSSTNVGSNTY, amino acids 27-37 of IAPP (human)
T2 peptide: LSSTNVGSNTY

T3: human islet-amyloid polypeptide (IAPP) (human)
T3 construct: also called hIAPP; human IAPP
T3 peptide: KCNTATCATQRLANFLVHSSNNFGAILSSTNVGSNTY


Tests used:
[1] = target: T1, rat IAPP; test: SPR (Biacore), antibody captured on anti-human CM5 chip, rat IAPP as analyte, global 1:1 fit
Method: The affinity of various combinations of 3H6 humanized heavy chains and humanized light chain proteins for IAPP was analyzed on a Biacore instrument. Biacore analysis was performed by preparing an anti-human CM5 chip following the protocol provided in the kit. The 3H6 antibody was captured such that the maximum binding of rat IAPP would not exceed 20-30 RU. […] Data was blank subtracted to both an irrelevant sensor not containing 3H6 and 0 IAPP concentration to account for the dissociation of 3H6 from the anti-human capture. Data was then analyzed using a global 1:1 fit.

[2] = target: T2, hIAPP peptide LSSTNVGSNTY, amino acids …; test: hybridoma epitope mapping against shorter peptides
Method: (§1) LA28-3H6 was originally a mouse hybridoma, producing an anti-hIAPP antibody of isotype Gamma 2a k, which resulted from a fusion of spleen cells from a mouse injected with hIAPP coupled to KLH via gluteraldehyde. The mouse was immunized with 25 μg of the conjugate in RIBI adjuvant on days 0, 7, 14, 21, 39, 46, 53, 60, 77, 84, and 91. […] On day 97 the mouse was injected with the IAPP/KLH conjugate both intraperitoneally and intravenously. Three days later the spleen was removed and a cell suspension was generated and frozen. Four months later the suspension was thawed and fused to SP2/0 cells. The fusion was screened against hIAPP, then epitope mapped against shorter peptides and found to react with […] (SEQ ID NO: 4), which corresponds to amino acids 27-37 of IAPP.

[3] = target: T3, human islet-amyloid polypeptide (IAPP); test: hybridoma screen against hIAPP
Method: as §1

Kd [1] [nM]	koff [1] [s⁻¹]	kon [1] [M⁻¹ s⁻¹]	binding result [2]	binding result [3]	Binder
34.5	0.00294	85200			humanized 3H6 antibody version H2L1 (antibody, V domains shown, also called h3H6-H2L1) VH: EVQLVESGGGLVQPGGSLKLSCAASGFTFSNYWMYWVRQAPGKGLEWVGEIRLKSDNYATHYAESVKGRFTISRDDSKNTAYLQMDSLKTEDTAVYYCTTFDYWGQGTLVTVSS VL: DVVMTQSPLSLPVTLGQPASISCKSSQSLLDSDGKTYLNWLQQRPGQSPKRLIYLVSKLDSGVPDRFSGSGSGTDFTLKISRVEAEDVGVHYCWQGRHFPYTFGQGTKLEIK
33.2	0.00625	188000			humanized 3H6 antibody version H3L2 (antibody, V domains shown, also called h3H6-H3L2) VH: EVQLVESGGGLVQPGGSLKLSCAASGFTFSNYWMYWVRQAPGKGLEWVGEIRLKSDNYATHYAESVKGRFTISRDDSKNTAYLQMDSLKTEDTAVYYCTIFDYWGQGTLVTVSS VL: DVVMTQSPLSLPVTLGQPASISCKSSQSLLDSDGKTYLNWLQQRPGQSPKRLIYLVSKLDSGVPDRFSGSGSGTDFTLKISRVEAEDVGVYYCWQGRHFPYTFGQGTKLEIK
85.4	0.00646	75700			humanized 3H6 antibody version H2L2 (antibody, V domains shown, also called h3H6-H2L2) VH: EVQLVESGGGLVQPGGSLKLSCAASGFTFSNYWMYWVRQAPGKGLEWVGEIRLKSDNYATHYAESVKGRFTISRDDSKNTAYLQMDSLKTEDTAVYYCTTFDYWGQGTLVTVSS VL: DVVMTQSPLSLPVTLGQPASISCKSSQSLLDSDGKTYLNWLQQRPGQSPKRLIYLVSKLDSGVPDRFSGSGSGTDFTLKISRVEAEDVGVYYCWQGRHFPYTFGQGTKLEIK
20.4	0.00231	113000			humanized 3H6 antibody version H1L1 (antibody, V domains shown, it was captured on an anti-human chip; also called h3H6-H1L1) VH: EVQLVESGGGLVQPGGSLKLSCAASGFTFSNYWMYWVRQAPGKGLEWVGEIRLKSDNYATHYAESVKGRFTISRDDSKNTVYLQMDSLKTEDTAVYYCTIFDYWGQGTLVTVSS VL: DVVMTQSPLSLPVTLGQPASISCKSSQSLLDSDGKTYLNWLQQRPGQSPKRLIYLVSKLDSGVPDRFSGSGSGTDFTLKISRVEAEDVGVHYCWQGRHFPYTFGQGTKLEIK
18.6	0.00152	81800	binds	binds	murine monoclonal antibody 3H6 (antibody, V domains shown, also called m3H6; mouse 3H6) VH: EVKLEESGGGLVQPGGSMKLSCVASGFTFSNYWMYWVRQSPEKGLEWVAEIRLKSDNYATHYAESVKGRFTISRDDSKSSVYLQMNSLRAEDTGIYYCTIFDYWGQGTTVTVSS VL: not shown
13.7	0.00147	107000			chimeric 3H6 antibody (antibody, V domains shown, also called ch3H6) VH: EVKLEESGGGLVQPGGSMKLSCVASGFTFSNYWMYWVRQSPEKGLEWVAEIRLKSDNYATHYAESVKGRFTISRDDSKSSVYLQMNSLRAEDTGIYYCTIFDYWGQGTTVTVSS VL: not shown
